Data as given in the supplement of paper PMC10065799, “High-throughput profiling of sequence recognition by tyrosine kinases and SH2 domains using bacterial peptide display” (eLife, 2023).

Tests used:
c-Abl (mouse) = experiment: phosphorylation enrichment, bacterial display (enrichment ratio); higher = better substrate or ligand; peptides without Tyr show the background
c-Src = experiment: as above
Hck = Hck (UniProt P08631); experiment: as above
Fer (mouse) = experiment: as above
FGFR1 = FGFR1 (UniProt P11362); experiment: as above
Sequence of FGFR1 (P11362 whole entry, looked up): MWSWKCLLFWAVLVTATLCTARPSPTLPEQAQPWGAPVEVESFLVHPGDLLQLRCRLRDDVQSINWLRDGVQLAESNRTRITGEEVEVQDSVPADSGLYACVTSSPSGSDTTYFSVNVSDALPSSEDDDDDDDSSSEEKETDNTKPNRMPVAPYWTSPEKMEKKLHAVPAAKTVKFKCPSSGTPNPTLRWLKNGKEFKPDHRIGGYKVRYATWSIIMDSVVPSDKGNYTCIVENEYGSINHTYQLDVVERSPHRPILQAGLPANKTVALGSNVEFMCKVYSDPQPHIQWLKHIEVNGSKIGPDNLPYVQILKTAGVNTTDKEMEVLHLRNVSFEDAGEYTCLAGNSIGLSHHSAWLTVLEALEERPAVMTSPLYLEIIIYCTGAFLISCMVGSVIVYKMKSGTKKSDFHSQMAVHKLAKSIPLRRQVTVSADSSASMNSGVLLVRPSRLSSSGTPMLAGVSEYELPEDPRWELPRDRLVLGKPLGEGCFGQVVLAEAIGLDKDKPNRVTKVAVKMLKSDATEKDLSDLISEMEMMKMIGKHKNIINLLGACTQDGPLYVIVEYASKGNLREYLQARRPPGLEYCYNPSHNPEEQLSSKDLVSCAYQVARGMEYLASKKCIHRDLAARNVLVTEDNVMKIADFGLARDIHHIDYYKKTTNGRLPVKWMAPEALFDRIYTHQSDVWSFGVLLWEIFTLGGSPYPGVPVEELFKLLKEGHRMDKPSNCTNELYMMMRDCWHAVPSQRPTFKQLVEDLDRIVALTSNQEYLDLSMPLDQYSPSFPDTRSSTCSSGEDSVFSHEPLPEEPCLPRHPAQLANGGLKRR

FGFR3 = FGFR3 (UniProt P22607); experiment: as above
Jak2 = Jak2 (UniProt O60674); experiment: as above
Sequence of Jak2 (O60674 whole entry, looked up): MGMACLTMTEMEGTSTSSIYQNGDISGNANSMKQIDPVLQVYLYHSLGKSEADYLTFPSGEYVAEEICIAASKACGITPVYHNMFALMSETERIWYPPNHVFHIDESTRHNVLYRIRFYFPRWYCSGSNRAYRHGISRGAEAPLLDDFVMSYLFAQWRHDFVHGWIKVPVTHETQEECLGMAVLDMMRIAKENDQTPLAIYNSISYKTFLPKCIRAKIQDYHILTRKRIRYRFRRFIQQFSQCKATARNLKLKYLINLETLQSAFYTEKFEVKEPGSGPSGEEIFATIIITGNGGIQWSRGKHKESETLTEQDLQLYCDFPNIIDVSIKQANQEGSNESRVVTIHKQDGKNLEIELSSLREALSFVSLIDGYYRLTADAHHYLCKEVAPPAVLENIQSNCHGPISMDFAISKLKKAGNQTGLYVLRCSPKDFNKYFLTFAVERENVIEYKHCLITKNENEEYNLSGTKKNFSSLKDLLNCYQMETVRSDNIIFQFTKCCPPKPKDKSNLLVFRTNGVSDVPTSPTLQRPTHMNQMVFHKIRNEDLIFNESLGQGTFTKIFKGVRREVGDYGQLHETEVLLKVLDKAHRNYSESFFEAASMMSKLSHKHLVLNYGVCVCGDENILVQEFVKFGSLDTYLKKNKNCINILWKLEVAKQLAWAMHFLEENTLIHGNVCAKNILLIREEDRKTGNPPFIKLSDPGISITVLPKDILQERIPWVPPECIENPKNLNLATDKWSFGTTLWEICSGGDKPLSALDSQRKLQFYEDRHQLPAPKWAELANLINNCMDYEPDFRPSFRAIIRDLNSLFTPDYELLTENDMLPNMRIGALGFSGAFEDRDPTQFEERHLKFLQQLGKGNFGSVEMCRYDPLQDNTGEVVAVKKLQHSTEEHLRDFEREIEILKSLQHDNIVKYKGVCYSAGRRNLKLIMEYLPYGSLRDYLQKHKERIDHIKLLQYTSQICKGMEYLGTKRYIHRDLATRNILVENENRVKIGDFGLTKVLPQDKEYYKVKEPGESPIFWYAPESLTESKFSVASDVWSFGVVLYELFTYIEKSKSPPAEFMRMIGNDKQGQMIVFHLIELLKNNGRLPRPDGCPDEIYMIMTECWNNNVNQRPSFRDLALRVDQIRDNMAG

Fyn = Fyn (UniProt P06241); experiment: as above
Sequence of Fyn (P06241 whole entry, looked up): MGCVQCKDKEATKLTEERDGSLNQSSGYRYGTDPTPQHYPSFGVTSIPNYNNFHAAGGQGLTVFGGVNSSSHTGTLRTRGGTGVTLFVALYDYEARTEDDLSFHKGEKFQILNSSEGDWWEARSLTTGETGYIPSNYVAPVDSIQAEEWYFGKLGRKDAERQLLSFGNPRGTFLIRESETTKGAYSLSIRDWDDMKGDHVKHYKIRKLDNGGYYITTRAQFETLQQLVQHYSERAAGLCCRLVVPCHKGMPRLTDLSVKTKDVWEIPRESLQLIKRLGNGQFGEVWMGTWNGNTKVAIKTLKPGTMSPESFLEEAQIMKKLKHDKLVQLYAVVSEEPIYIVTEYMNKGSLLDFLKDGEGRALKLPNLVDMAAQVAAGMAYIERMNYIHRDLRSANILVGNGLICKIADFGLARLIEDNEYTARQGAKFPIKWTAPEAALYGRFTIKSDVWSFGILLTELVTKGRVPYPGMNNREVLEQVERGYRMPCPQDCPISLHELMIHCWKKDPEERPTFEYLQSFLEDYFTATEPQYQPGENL

EPHB2 = EPHB2 (UniProt P29323); experiment: as above
Sequence of EPHB2 (P29323 whole entry, looked up): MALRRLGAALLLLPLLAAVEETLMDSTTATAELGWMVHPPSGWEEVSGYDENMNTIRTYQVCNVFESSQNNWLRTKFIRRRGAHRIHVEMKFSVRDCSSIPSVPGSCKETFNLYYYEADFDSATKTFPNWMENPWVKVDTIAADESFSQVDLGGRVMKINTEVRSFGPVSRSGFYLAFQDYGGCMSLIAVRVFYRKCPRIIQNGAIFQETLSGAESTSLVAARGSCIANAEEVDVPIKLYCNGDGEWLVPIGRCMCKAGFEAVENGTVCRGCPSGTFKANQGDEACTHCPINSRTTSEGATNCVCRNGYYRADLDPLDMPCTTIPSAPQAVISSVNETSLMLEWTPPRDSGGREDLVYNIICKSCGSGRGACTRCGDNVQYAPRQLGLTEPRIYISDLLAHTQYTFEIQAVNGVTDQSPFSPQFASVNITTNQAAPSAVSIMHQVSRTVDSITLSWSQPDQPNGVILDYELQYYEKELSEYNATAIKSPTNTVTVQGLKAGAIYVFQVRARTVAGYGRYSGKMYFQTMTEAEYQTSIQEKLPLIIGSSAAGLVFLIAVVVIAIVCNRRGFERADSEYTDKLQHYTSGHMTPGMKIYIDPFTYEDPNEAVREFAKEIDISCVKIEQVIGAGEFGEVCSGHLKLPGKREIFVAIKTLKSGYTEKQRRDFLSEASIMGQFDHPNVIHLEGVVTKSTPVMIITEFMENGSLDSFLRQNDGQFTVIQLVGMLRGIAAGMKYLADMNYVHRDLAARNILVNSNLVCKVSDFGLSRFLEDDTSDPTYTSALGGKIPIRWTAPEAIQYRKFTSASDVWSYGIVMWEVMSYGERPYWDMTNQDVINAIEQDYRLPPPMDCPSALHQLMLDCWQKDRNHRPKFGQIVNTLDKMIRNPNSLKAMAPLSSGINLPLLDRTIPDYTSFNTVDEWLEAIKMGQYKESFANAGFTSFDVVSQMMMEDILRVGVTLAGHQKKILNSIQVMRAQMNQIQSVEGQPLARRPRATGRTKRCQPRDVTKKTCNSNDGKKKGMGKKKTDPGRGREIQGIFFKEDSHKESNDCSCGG

EPHB1 = EPHB1 (UniProt P54762); experiment: as above
Sequence of EPHB1 (P54762 whole entry, looked up): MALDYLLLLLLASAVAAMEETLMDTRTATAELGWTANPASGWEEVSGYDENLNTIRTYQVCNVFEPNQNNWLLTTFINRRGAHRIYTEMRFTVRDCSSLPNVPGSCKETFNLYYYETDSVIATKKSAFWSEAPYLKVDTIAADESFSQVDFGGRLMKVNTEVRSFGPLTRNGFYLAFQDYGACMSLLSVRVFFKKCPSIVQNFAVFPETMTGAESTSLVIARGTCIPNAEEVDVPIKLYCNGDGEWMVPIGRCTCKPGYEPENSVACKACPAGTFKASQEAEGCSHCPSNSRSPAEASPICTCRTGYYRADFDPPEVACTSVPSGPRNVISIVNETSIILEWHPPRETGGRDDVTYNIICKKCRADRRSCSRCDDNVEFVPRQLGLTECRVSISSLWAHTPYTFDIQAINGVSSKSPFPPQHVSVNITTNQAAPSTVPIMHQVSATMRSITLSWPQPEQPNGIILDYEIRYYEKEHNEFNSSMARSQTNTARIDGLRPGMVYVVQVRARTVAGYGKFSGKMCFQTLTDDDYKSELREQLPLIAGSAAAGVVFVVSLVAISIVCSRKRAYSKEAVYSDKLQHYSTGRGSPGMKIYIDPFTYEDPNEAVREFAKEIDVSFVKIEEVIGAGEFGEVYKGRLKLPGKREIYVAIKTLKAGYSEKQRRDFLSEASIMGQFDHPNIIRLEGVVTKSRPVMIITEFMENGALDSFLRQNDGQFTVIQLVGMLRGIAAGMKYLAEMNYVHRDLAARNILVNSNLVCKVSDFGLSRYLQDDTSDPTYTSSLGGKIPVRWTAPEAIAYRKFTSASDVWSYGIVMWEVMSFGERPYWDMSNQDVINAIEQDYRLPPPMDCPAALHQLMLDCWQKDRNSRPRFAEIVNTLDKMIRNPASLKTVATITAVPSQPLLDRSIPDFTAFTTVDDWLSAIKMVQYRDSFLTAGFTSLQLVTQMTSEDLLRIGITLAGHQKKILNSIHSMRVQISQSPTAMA

Fes = Fes (UniProt P07332); experiment: as above
AncSZ = experiment: as above
MERTK = MERTK (UniProt Q12866); experiment: as above
SHP2-C SH2 = experiment: SH2 binding enrichment of the phosphorylated peptide, bacterial display (enrichment ratio); higher = better substrate or ligand; peptides without Tyr show the background
c-Src SH2 = experiment: as above
Grb2 SH2 = Grb2 SH2 (UniProt P62993); experiment: as above
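Wherever SH2 binding enrichment of the phosphorylated peptide, bacterial display is given: peptide library displayed on the E. coli surface as eCPX fusions, selected cells deep-sequenced, score is each peptide's frequency after selection divided by its frequency in the input.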
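Wherever phosphorylation enrichment, bacterial display is given: 11-residue human phosphosite peptides and single-mutation variants displayed on the E. coli surface, counted by deep sequencing, each peptide's frequency after selection divided by its frequency in the unselected input library; frequency after pTyr selection over input frequency; kinase dosed for 20-30% of maximal phosphorylation in three min.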

Sequence of Hck (P08631 whole entry, looked up): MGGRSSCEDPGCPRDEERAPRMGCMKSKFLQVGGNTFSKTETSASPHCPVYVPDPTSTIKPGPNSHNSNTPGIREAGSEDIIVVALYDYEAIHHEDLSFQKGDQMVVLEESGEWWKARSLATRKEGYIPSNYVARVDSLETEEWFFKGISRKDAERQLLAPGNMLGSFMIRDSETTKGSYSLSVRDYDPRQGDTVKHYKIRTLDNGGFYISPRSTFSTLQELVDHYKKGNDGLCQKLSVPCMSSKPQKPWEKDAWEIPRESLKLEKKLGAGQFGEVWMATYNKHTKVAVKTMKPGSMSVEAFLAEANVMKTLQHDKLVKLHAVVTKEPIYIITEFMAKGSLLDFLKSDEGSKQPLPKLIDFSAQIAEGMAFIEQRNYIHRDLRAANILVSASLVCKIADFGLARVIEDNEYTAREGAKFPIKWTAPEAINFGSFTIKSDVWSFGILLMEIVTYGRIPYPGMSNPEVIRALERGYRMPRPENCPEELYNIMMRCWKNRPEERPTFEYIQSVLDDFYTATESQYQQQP

| SH2 binding enrichment (SHP2-C SH2) | SH2 binding enrichment (c-Src SH2) | SH2 binding enrichment (Grb2 SH2) | Sequence | phosphorylation enrichment (c-Abl (mouse)) | phosphorylation enrichment (c-Src) | phosphorylation enrichment (Hck) | phosphorylation enrichment (Fer (mouse)) | phosphorylation enrichment (FGFR1) | phosphorylation enrichment (FGFR3) | phosphorylation enrichment (Jak2) | phosphorylation enrichment (Fyn) | phosphorylation enrichment (EPHB2) | phosphorylation enrichment (EPHB1) | phosphorylation enrichment (Fes) | phosphorylation enrichment (AncSZ) | phosphorylation enrichment (MERTK) |
| --- | --- | --- | --- | --- | --- | --- | --- | --- | --- | --- | --- | --- | --- | --- | --- | --- |
| 1.35 | 1.19 | 1.24 | SVTCTYCPALN [TP53_Y126_S127C] | 0.683 | 0.581 | 0.495 | 0.394 | 0.564 | 0.46 | 0.629 | 0.545 | 0.413 | 0.38 | 0.779 | 0.84 | 0.611 |
| 0.299 | 0.403 | 0.748 | ADRNHYRRYPR [YBX1_Y145] | 0.717 | 0.515 | 0.55 | 0.46 | 0.527 | 0.465 | 0.585 | 0.544 | 0.425 | 0.424 | 0.644 | 0.613 | 0.48 |
| 0.682 | 0.505 | 0.902 | DLQDEYDFKRK [STAT1_Y170_C174R] | 0.588 | 0.476 | 0.472 | 0.463 | 0.472 | 0.643 | 0.916 | 0.465 | 0.54 | 0.495 | 1.16 | 0.992 | 0.355 |

The next lines start with the sequence.

| Sequence | SH2 binding enrichment (SHP2-C SH2) | SH2 binding enrichment (c-Src SH2) | SH2 binding enrichment (Grb2 SH2) | phosphorylation enrichment (c-Abl (mouse)) | phosphorylation enrichment (c-Src) | phosphorylation enrichment (Hck) | phosphorylation enrichment (Fer (mouse)) | phosphorylation enrichment (FGFR1) | phosphorylation enrichment (FGFR3) | phosphorylation enrichment (Jak2) | phosphorylation enrichment (Fyn) | phosphorylation enrichment (EPHB2) | phosphorylation enrichment (EPHB1) | phosphorylation enrichment (Fes) | phosphorylation enrichment (AncSZ) | phosphorylation enrichment (MERTK) |
| --- | --- | --- | --- | --- | --- | --- | --- | --- | --- | --- | --- | --- | --- | --- | --- | --- |
| WKKKIYEESST [MOCS2_Y170_E168K] | 0.481 | 0.415 | 0.62 | 0.761 | 0.448 | 0.511 | 0.449 | 0.423 | 0.813 | 0.794 | 0.534 | 0.526 | 0.393 | 1.05 | 0.818 | 0.432 |
| MLEVPYVDHNS [F10_Y384_R387H] | 0.547 | 0.407 | 0.707 | 0.817 | 0.506 | 0.618 | 0.583 | 0.516 | 0.786 | 1.24 | 0.416 | 0.51 | 0.594 | 1.42 | 1.2 | 0.424 |
| YTHSDYQYGQR [PKP2_Y166_S169G] | 0.885 | 0.692 | 0.712 | 0.492 | 0.439 | 0.703 | 0.572 | 0.531 | 0.606 | 0.317 | 0.476 | 0.416 | 0.436 | 0.496 | 0.867 | 0.424 |
| GYIISYREEEQ | 1.04 | 0.527 | 0.857 | 0.909 | 0.516 | 0.473 | 0.596 | 0.532 | 0.586 | 1.53 | 0.546 | 0.599 | 0.48 | 2.14 | 1.79 | 0.539 |
| KFLENYLNCLL [PLD2_Y169_R172C_YF] | 1.61 | 1.25 | 1.45 | 0.91 | 0.572 | 0.474 | 0.532 | 0.759 | 0.859 | 1.23 | 0.497 | 0.676 | 0.748 | 1.17 | 1.23 | 0.461 |
| RRGTGYTLSLP [MAGEC3_Y152] | 0.556 | 0.358 | 0.686 | 0.764 | 0.497 | 0.693 | 0.564 | 0.772 | 0.643 | 0.477 | 0.73 | 0.643 | 0.553 | 0.812 | 0.579 | 0.551 |
